Common to all, as to experiment: purified protein
Conditions in all cases: air oxygen

Substrate in data set [1]: COc1ccccc1O
Substrate in data set [2]: CCn1c(=NN=c2sc3cc(S(=O)(=O)O)ccc3n2CC)sc2cc(S(=O)(=O)O)ccc21
In kind it is biochemical, Coprinus comatus.

Substrate in data set [3]: Cc1cccc(C)c1O
It counts as biochemical, Coprinus comatus.

Substrate in data set [4]: COc1cc(C=NN=Cc2cc(OC)c(O)c(OC)c2)cc(OC)c1O
In kind it is biochemical, Coprinus comatus.

Where [5] appears, read: pH 6.0, optimal temperature 60 °C, 60.0 °C.
The mark [6] stands for this setting: pH 3.0, optimal temperature 60 °C.
The mark [7] stands for this setting: pH 5.5 (optimum elsewhere given as 6.0), optimal temperature 65 °C.
Where [8] appears, read: pH 6.0 (optimum elsewhere given as 5.5), optimal temperature 65 °C.
Where [9] appears, read: pH 5.0, optimal temperature 50 °C, 50.0 °C.
Setting [10] is: pH 3.0, optimal temperature 65 °C.
Where [11] appears, read: pH 5.5 (optimum elsewhere given as 5.0), optimal temperature 60 °C.
[12] abbreviates: pH 5.0 (optimum elsewhere given as 5.5), optimal temperature 60 °C.

B1: Lac4 (Coprinus comatus) (protein)
chain: LSVGPRATLTLTNDVVAPDGFERSAIVVNGGHPGPLIQANKGDAYTINVVNRLTDSTMQRVSSIHWHGLSQRGTNWADGGSGVNQCPISPNHSFEYQFSGRKDQAGTFWYHSHYSIQYCDGLRGPLVIYDPNDPFKNLYDVDDESTVITLTDWYHTPFPSVTGPPTSDSTLINGKGRYPGGPNVDLSVINVERGKRYRFRLVALTCENSHLFGIDGHQLLVIETGGESTVPTLVDKITLLAGQRYSFVLDANQAVDNYWIRGLPRSGVPSLKAGYEGGLNSAILRYQGAPITEPQTTDNENAALLDEAQLVPTRNPFAPGRPTSGGADFNVTVNFELDLTTGSPHFKLNGKIYQPPTVPILLQIISGARKAEELLPEGNIYFVPRNKVVEVTVPGGIPGAPHPMHLHGHHFSVVKSAGKHNQVNYLTPVRRDTTASPVEVDDNTTIRFTTDSPGPWIFHCHFNKHQSIGMAVVFVADIDEVAEKNPTPDAWNDLCPIYQSLSESETVVEIVPMVKH
notes: mature form (532-aa precursor, 16-aa putative signal peptide removed); pPICZalphaB-10AALac4; secreted from Pichia pastoris KM71H; glycosylated, about 70 kDa (52 kDa after endoH)
Take B1: the Km (in general, the concentration of substrate that gives half-maximal velocity) is 455 µM in the data set “purified protein [1]” (setting [5]), 205 µM in “purified protein [2]” (setting [6]), 7131 µM in the data set “purified protein [3]” (setting [7]) and 204 µM in the data set “purified protein [4]” (setting [8]). Further, the kcat – broadly, the maximal rate divided by the concentration of active sites – in “purified protein [1]” (setting [5]) is 0.196 s⁻¹; in the data set “purified protein [2]” (setting [6]) it was 1.47 s⁻¹; in the data set “purified protein [3]” (setting [7]), 1.47 s⁻¹; in “purified protein [4]” (setting [8]), 44.7 s⁻¹. The specificity constant (kcat/Km) (usually the turnover number divided by the Michaelis constant) in the data set “purified protein [1]” (setting [5]) stood at 503 M⁻¹ s⁻¹; in “purified protein [2]” (setting [6]), 7170 M⁻¹ s⁻¹; in “purified protein [3]” (setting [7]), 206 M⁻¹ s⁻¹; in the data set “purified protein [4]” (setting [8]), 220000 M⁻¹ s⁻¹.

B2: Lac3 (Coprinus comatus) (protein)
chain: SVLIPHSTLTLTNQLIAPDGFQRSAIVVNGEHPGPLIQATKGDGFMVNVVNQLTDPTMQRAASVHWHGLSQRGTNWADGATGVNQCPISPNHSFEYTFTGGDSQAGTFWYHSHYFLQYCDGLRGPLVIYDPEDPWKNLYDVDDESTVLTLADWYHTPFPSIPGFPLPESTLINGKGRYPDGPNVDLSIVNVEKGKRYRFRLVSLACETSYLFGIDGHQLQVIETDGQNTVPVVVDKLRIFAGQRYSFVLDANQNIDNYWVRSLPANGMPKLVAGYEGGINSAILRYRGAPISDPQTNDNQNLILLEEAKLVPAQDPFPPGNPTAGGADFNVTLNFVLDVDLASGEPQFKLNDKVYRPPSVPILLKILSGARRPEELLPEGNLFSVPRDKVIEVTVPGGIAAGPHPMHLHGHTFSVVKSAGKNNQPNYLTPVRRDVTATSQEVDDYITIRFTTDNPGPWLLHCHLNKHHESGMVVVFVADVDSVAEENPVPDAWNDLCPIYDALSDAEKEVKIVSSLPMPV
notes: mature form (547-aa precursor, 28-aa putative signal peptide removed); pPICZalphaB-10AALac3; secreted from Pichia pastoris KM71H; glycosylated, about 75 kDa (55 kDa after endoH)
For the protein B2, the Michaelis-Menten constant (Km) in the data set “purified protein [1]” (setting [9]) was determined as 1114 µM; in “purified protein [2]” (setting [10]) it was 136 µM; in the data set “purified protein [3]” (setting [11]), 1374 µM; in the data set “purified protein [4]” (setting [12]), 87 µM. The turnover number (kcat) in the data set “purified protein [1]” (setting [9]) was 0.418 s⁻¹; in “purified protein [2]” (setting [10]), 3.48 s⁻¹; in the data set “purified protein [3]” (setting [11]) it was 0.307 s⁻¹; in the data set “purified protein [4]” (setting [12]), 32 s⁻¹. Also, the kcat/Km in the data set “purified protein [1]” (setting [9]) came to 375 M⁻¹ s⁻¹; in the data set “purified protein [2]” (setting [10]), 25600 M⁻¹ s⁻¹; in the data set “purified protein [3]” (setting [11]), 223 M⁻¹ s⁻¹; in “purified protein [4]” (setting [12]), 367000 M⁻¹ s⁻¹.

Values taken from publication PMC3977997, “Engineering the Expression and Characterization of Two Novel Laccase Isoenzymes from Coprinus comatus in Pichia pastoris by Fusing an Additional Ten Amino Acids Tag at N-Terminus” (PLoS ONE, 2014).
